Data reported in patent US20260226144A1 (NEPHRIS, published 2026).
Numbering of substitutions follows the chain as printed.

T1: native murine NBL1 (murine, UniProt Q61477 17-178)
T1 construct: Endogenous protein, not recombinant; also called murine plasma NBL1; murine splenocyte NBL1
T1 sequence (looked up): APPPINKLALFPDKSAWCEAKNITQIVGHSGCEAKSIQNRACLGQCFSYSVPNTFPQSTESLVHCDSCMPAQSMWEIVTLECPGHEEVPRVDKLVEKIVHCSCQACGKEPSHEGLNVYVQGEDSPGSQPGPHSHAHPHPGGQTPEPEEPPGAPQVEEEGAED

T2: mouse NBL1 (mouse, UniProt Q61477 17-178, limits assumed)
T2 sequence (looked up): T1 sequence (looked up)

T3: native human NBL1 (human, UniProt P41271 17-181, limits assumed)
T3 construct: Endogenous protein in permeabilized PBMCs of healthy volunteers; also called native human NBL1 found in human PBMCs
T3 sequence (looked up): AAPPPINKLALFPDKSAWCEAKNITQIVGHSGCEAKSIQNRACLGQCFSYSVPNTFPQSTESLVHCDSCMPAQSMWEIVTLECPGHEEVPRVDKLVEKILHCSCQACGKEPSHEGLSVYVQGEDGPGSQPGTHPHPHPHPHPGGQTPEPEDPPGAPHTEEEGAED

B1: Antibody YU1019-A12 (antibody, human IgG1, V domains shown)
VH: EVQLLESGPGLVKPSQTLSLTCTVSGGSISSGDYYWSWIRQPPGKGLEWIGYIYYSGSTYYNPSLKSRVTISVDTSKNQFSLKLSSVTAADTAVYYCARGRRLLLFHWGQGTTVTVSS
VL: QSVLTQPPSVSAAPGQKVTISCSGSGSSIGNNYVSWYQQVPGTPPKLLIYDNNKRASGIPDRFSGSKSGTSATLGITGLQTGDEADYYCGTWDNSLSAVVFGGGTKLTVL
B2: Antibody YU1018-E04 (antibody, human IgG1, V domains shown)
VH: QVQLVQSGAEVKKPGESLKISCKGSGYSFTSYWIGWVRQMPGKGLEWMGIIYPGDSDTRYSPSFQGQVTISADKSISTAYLQWSSLKASDTAMYYCARAIVGATSGYWFDPWGQGTLVTVSS
VL: not shown
B3: Antibody YU1019-B06 (antibody, human IgG1, V domains shown)
VH: EVQLLESGGGVVQPGRSLRLSCAASGFTFSSYAMHWVRQAPGKGLEWVAVISYDGSNKYYADSVKGRFTISRDNSKNTLYLQMNSLRAEDTAVYYCASPVLRYFDWLPNYWGQGTLVTVSS
VL: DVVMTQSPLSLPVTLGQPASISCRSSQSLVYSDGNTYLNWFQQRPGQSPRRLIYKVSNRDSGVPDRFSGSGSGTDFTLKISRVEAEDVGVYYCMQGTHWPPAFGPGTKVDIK
B4: Antibody YU1018-E01 (antibody, human IgG1, V domains shown)
VH: QVQLVQSGAEVKKPGASVKVSCKASGYTFTSYGISWVRQAPGRGLEWMGWISAYNGNTNYAQKLQGRVTMTTDTSTSTAYMELRSLRSDDTAVYYCARGPRDGYNDYWGQGTLVTVSS
VL: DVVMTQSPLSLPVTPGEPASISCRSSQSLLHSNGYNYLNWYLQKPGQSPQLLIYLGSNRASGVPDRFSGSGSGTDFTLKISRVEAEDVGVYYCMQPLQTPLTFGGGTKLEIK
B5: Antibody YU1018-G01 (antibody, human IgG1, V domains shown)
VH: QVQLVQSGAEVKKPGASVKVSCKASGYTFTSYAMHWVRQAPGQRLEWMGWINAGNGNTKYSQKFQGRVTITRDTSASTAYMELSSLRSEDTAVYYCARGRELLTFDYWGQGTLVTVSS
VL: not shown
B6: Antibody YU1018-D12 (antibody, V domains shown)
VH: EVQLVQSGAEVKKPGASVKVSCKASGYTFTSYGISWVRQAPGQGLEWMGWISAYNGNTNYAQKLQGRVTMTTDTSTSTAYMELRSLRSDDTAVYYCARDVGYSYGIFDYWGQGTLVTVSS
VL: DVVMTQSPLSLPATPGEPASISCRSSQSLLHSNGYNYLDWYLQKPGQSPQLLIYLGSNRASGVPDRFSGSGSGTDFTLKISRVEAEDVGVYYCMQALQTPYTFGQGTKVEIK
B7: Antibody YU1018-D06 (antibody, human IgG1, V domains shown)
VH: QVQLVESGPGLVKPSQTLSLTCTVSGGSISSGGYYWSWIRQHPGKGLEWIGYIYYSGSTYYNPSLKSRVTISVDTSKNQFSLKLSSVTAADTAVYYCARSGAAGIPWFDPWGQGTLVTVSS
VL: B1 VL with G26S, S28N, V40L, P44A, D51E, K54E, A56P, F63L, G75A, N94S
B8: Antibody YU1018-E07 (antibody, V domains shown)
VH: B3 VH with L116T
VL: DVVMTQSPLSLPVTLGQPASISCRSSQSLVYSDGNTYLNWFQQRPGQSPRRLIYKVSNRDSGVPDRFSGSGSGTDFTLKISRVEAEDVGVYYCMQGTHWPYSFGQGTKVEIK
B9: Antibody YU1018-C11 (antibody, V domains shown)
VH: QVQLVQSGGGLVQPGGSLRLSCAASGFTFSSYAMSWVRQAPGKGLEWVSAISGSGGSTYYADSVKGRFTISRDNSKNTLYLQMNSLRAEDTAVYYCARGGFWGSYRYWSAAFDIWGQGTMVTVSS
VL: not shown
B10: Antibody YU1018-D08 (antibody, human IgG1, V domains shown)
VH: QVQLVQSGAEVKKPGSSVKVSCKASGGTFSSYAISWVRQAPGQGLEWMGGIIPIFGTANYAQKFQGRVTITADKSTSTAYMELSSLRSEDTAVYYCARDRYYDSSGYYLMDPWGQGTLVTVSS
VL: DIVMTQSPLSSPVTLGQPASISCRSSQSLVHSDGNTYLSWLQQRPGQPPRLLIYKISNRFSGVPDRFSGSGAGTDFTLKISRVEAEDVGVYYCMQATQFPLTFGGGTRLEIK

Target: T1, native murine NBL1
Assay: sandwich ELISA on native murine plasma NBL1
Method: Binding of the mAbs to native murine plasma NBL1 was performed using a sandwich ELISA, as illustrated in FIG. 11A.

| Binder | binding result |
| --- | --- |
| B1 | binds |

Target: T1, native murine NBL1
Assay: immunotarget assay on permeabilized murine splenocytes, FACS

| Binder | binding result |
| --- | --- |
| B2 | binds |
| B3 | binds |

Target: T2, mouse NBL1
Assay: ELISA, IgG1 format

| Binder | binding result |
| --- | --- |
| B4 | binds |
| B5 | binds |
| B6 | binds |
| B1 | binds |
| B7 | binds |
| B2 | binds |
| B3 | binds |
| B8 | binds |
| B9 | binds |
| B10 | binds |

Target: T3, native human NBL1
Assay: immunotargeted assay on permeabilized human PBMCs, FACS
From the text: PBMCs were isolated from blood samples of healthy volunteers.

| Binder | binding result |
| --- | --- |
| B1 | binds |
| B2 | binds |
| B3 | binds |
